What all share (assay): purified protein
Data set [1] has as its system O=C(O)CCC(=O)C1=CC=C[C@@H](O)[C@@H]1C(=O)O. To be noted: 50 mM Tris pH 8.0, 0.1 mM MnCl2, 25 °C, Amycolatopsis numbering.
Substrate in data set [2]: C[C@H](N)C(=O)N[C@@H](CCC(=O)O)C(=O)O
The class given is biochemical, Bacillus subtilis. To be noted: 50 mM Tris pH 8.0, 10 mM MgCl2, 25 °C.

Substrate in data set [3]: O=C(O)CCC(=O)N[C@@H](C(=O)O)c1ccccc1
To be noted: 200 mM Tris pH 8.0, 0.1 mM MnCl2, 25 °C.

Substrate in data set [4]: O=C(O)CCC(=O)C1=CC=C[C@@H](O)[C@@H]1C(=O)O
To be noted: 50 mM Tris pH 8.0, 0.1 mM MnCl2, 25 °C.

Substrate in data set [5]: C[C@H](N)C(=O)N[C@@H](CCC(=O)O)C(=O)O
In kind it is biochemical, Escherichia coli. To be noted: 50 mM Tris pH 8.0, 10 mM MgCl2, 25 °C.

By Km is commonly meant the substrate concentration at which the rate is half of its maximum. As a reminder, the kcat is the maximal rate divided by the concentration of active sites. On to “LiNSAR/OSBS (Listeria innocua Clip11262; R266Q)”, for which, in data set [1], the Km is 163 ± 15 µM and the kcat was 0.57 ± 0.02 s⁻¹.

B1: BsDE (Bacillus subtilis subsp. subtilis str. 168; K271Q) (protein)
chain: MKIIRIETSRIAVPLTKPFKTALRTVYTAESVIVRITYDSGAVGWGEAPPTLVITGDSMDSIESAIHHVLKPALLGKSLAGYEAILHDIQHLLTGNMSAKAAVEMALYDGWAQMCGLPLYQMLGGYRDTLETDYTVSVNSPEEMAADAENYLKQGFQTLKIKVGKDDIATDIARIQEIRKRVGSAVKLRLDANQGWRPKEAVTAIRKMEDAGLGIELVEQPVHKDDLAGLKKVTDATDTPIMADESVFTPRQAFEVLQTRSADLINIKLMQAGGISGAEKINAMAEACGVECMVGSMIETKLGITAAAHFAASKRNITRFDFDAPLMLKTDVFNGGITYSGSTISMPGKPGLGIIGAALLKGEKEQ
Turning to B1, in data set [2], the Km is 508 ± 165 µM and the kcat stood at 0.23 ± 0.03 s⁻¹.

B2: BsDE (Bacillus subtilis subsp. subtilis str. 168) (protein)
chain: MKIIRIETSRIAVPLTKPFKTALRTVYTAESVIVRITYDSGAVGWGEAPPTLVITGDSMDSIESAIHHVLKPALLGKSLAGYEAILHDIQHLLTGNMSAKAAVEMALYDGWAQMCGLPLYQMLGGYRDTLETDYTVSVNSPEEMAADAENYLKQGFQTLKIKVGKDDIATDIARIQEIRKRVGSAVKLRLDANQGWRPKEAVTAIRKMEDAGLGIELVEQPVHKDDLAGLKKVTDATDTPIMADESVFTPRQAFEVLQTRSADLINIKLMKAGGISGAEKINAMAEACGVECMVGSMIETKLGITAAAHFAASKRNITRFDFDAPLMLKTDVFNGGITYSGSTISMPGKPGLGIIGAALLKGEKEQ
For the molecule B2, in data set [2], the Michaelis constant (Km) worked out at 452 ± 120 µM and the kcat was found to be 21.4 ± 2 s⁻¹.

B3: LiNSAR/OSBS (Listeria innocua Clip11262) (protein)
chain: MYFQKARLIHAELPLLAPFKTSYGELKSKDFYIIELINEEGIHGYGELEAFPLPDYTEETLSSAILIIKEQLLPLLAQRKIRKPEEIQELFSWIQGNEMAKAAVELAVWDAFAKMEKRSLAKMIGATKESIKVGVSIGLQQNVETLLQLVNQYVDQGYERVKLKIAPNKDIQFVEAVRKSFPKLSLMADANSAYNREDFLLLKELDQYDLEMIEQPFGTKDFVDHAWLQKQLKTRICLDENIRSVKDVEQAHSIGSCRAINLKLARVGGMSSALKIAEYCALNEILVWCGGMLEAGVGRAHNIALAARNEFVFPGDISASNRFFAEDIVTPAFELNQGRLKVPTNEGIGVTLDLKVLKKYTKSTEEILLNKGWS
Take B3: in data set [3], the Km stood at 1000 ± 270 µM and the kcat stood at 3.74 ± 0.5 s⁻¹. In data set [4], the Km was 155 ± 16 µM and the kcat was determined as 216 ± 7 s⁻¹.

B4: RcNSAR/OSBS (Roseiflexus castenholzii DSM 13941) (protein)
chain: MKIESITLHHIDMPLVAPFETSFGRETHRPCILIEMRADGLTGWGECVAGAGPWYAYETIGTAWHIISDFLAPMIVGQEITEPIGIVERFASVRGHPMARAAVEAAFWDLYAQARGVSLARLIGATRDRVTVGVSVGIELTLEAQLASIERFVAAGYARIKLKIKPGWDVAVVRAVRERWPDIALQVDANSAYTPDDAPIFRELDEMNLLLIEQPLHHDDIVDHARLQAQISTPICLDESIHSPEHARWALDIDACRVINIKIGRVGGLTAARQIHDLCAERGVPVWCGGMLETNVGRAVNLALAALPNFALPGDISASARYYHRDIAAPDFVLNDDSTITVPDTPGTGVAVLPERLRDVQVREVIIGKG
With B4, in data set [3], the Michaelis constant (Km) was determined as 900 ± 100 µM and the kcat amounted to 12.7 ± 0.4 s⁻¹. Besides, in data set [4], the Km came out at 116 ± 15 µM and the kcat came to 54.6 ± 2 s⁻¹.

B5: EfNSAR/OSBS (Enterococcus faecalis V583) (protein)
chain: MNIQSIETYQVRLPLKTPFVTSYGRLEEKAFDLFVITDEQGNQGFGELVAFEQPDYVQETLVTERFIIQQHLIPLLLTEAIEQPQEVSTIFEEVKGHWMGKAALETAIWDLYAKRQQKSLTEFFGPTRRKIPVGISLGIQEDLPQLLKQVQLAVEKGYQRVKLKIRPGYDVEPVALIRQHFPNLPLMVDANSAYTLADLPQLQRLDHYQLAMIEQPFAADDFLDHAQLQRELKTRICLDENIRSLKDCQVALALGSCRSINLKIPRVGGIHEALKIAAFCQENDLLVWLGGMFESGVGRALNLQFASQPTFSFPGDISATERYFYEDIITEPFILEQGTMTVPQGLGIGVTLSQTNLLKYSQYQKIM
Consider B5, for which, in data set [3], the Km came to 1500 ± 150 µM and the kcat stood at 34 ± 1 s⁻¹. In data set [4], the Km amounted to 17 ± 3 µM and the kcat amounted to 160 ± 7 s⁻¹.

B6: EcDE (Escherichia coli K-12) (protein)
chain: MRTVKVFEEAWPLHTPFVIARGSRSEARVVVVELEEEGIKGTGECTPYPRYGESDASVMAQIMSVVPQLEKGLTREELQKILPAGAARNALDCALWDLAARRQQQSLADLIGITLPETVITAQTVVIGTPDQMANSASTLWQAGAKLLKVKLDNHLISERMVAIRTAVPDATLIVDANESWRAEGLAARCQLLADLGVAMLEQPLPAQDDAALENFIHPLPICADESCHTRSNLKALKGRYEMVNIKLDKTGGLTEALALATEARAQGFSLMLGCMLCTSRAISAALPLVPQVSFADLDGPTWLAVDVEPALQFTTGELHL
As to B6, in data set [5], the Km is 340 ± 60 µM and the kcat was found to be 11.4 ± 0.7 s⁻¹.

Source of the values: doi:10.1101/2022.03.03.481873v1.
